Reference: paper PMC11711546 (2024)

B1: TSHZ3-HA wild-type (teashirt zinc finger homeobox 3) [human] / MYOCD-Flag (myocardin) [not stated] (parent complex)
chain 1: MPRRKQQAPRRAAAYVSEELKAAALVDEGLDPEEHTADGEPSAKYMCPEKELARACPSYQNSPAAEFSCHEMDSESHISETSDRMADFESGSIKNEEETKEVTVPLEDTTVSDSLEQMKAVYNNFLSNSYWSNLNLNLHQPSSEKNNGSSSSSSSSSSSCGSGSFDWHQSAMAKTLQQVSQSRMLPEPSLFSTVQLYRQSSKLYGSIFTGASKFRCKDCSAAYDTLVELTVHMNETGHYRDDNHETDNNNPKRWSKPRKRSLLEMEGKEDAQKVLKCMYCGHSFESLQDLSVHMIKTKHYQKVPLKEPVTPVAAKIIPATRKKASLELELPSSPDSTGGTPKATISDTNDALQKNSNPYITPNNRYGHQNGASYAWHFEARKSQILKCMECGSSHDTLQELTAHMMVTGHFIKVTNSAMKKGKPIVETPVTPTITTLLDEKVQSVPLAATTFTSPSNTPASISPKLNVEVKKEVDKEKAVTDEKPKQKDKPGEEEEKCDISSKYHYLTENDLEESPKGGLDILKSLENTVTSAINKAQNGTPSWGGYPSIHAAYQLPNMMKLSLGSSGKSTPLKPMFGNSEIVSPTKNQTLVSPPSSQTSPMPKTNFHAMEELVKKVTEKVAKVEEKMKEPDGKLSPPKRATPSPCSSEVGEPIKMEASSDGGFRSQENSPSPPRDGCKDGSPLAEPVENGKELVKPLASSLSGSTAIITDHPPEQPFVNPLSALQSVMNIHLGKAAKPSLPALDPMSMLFKMSNSLAEKAAVATPPPLQSKKADHLDRYFYHVNNDQPIDLTKGKSDKGCSLGSVLLSPTSTAPATSSSTVTTAKTSAVVSFMSNSPLRENALSDISDMLKNLTESHTSKSSTPSSISEKSDIDGATLEEAEESTPAQKRKGRQSNWNPQHLLILQAQFAASLRQTSEGKYIMSDLSPQERMHISRFTGLSMTTISHWLANVKYQLRRTGGTKFLKNLDTGHPVFFCNDCASQIRTPSTYISHLESHLGFRLRDLSKLSTEQINSQIAQTKSPSEKMVTSSPEEDLGTSYQCKLCNRTFASKHAVKLHLSKTHGKSPEDHLLYVSELEKQ
chain 2: MTLLGSEHSLLIRSKFRSVLQLRLQQRRTQEQLANQGIIPPLKRPAEFHEQRKHLDSDKAKNSLKRKARNRCNSADLVNMHILQASTAERSIPTAQMKLKRARLADDLNEKIALRPGPLELVEKNILPVDSAVKEAIKGNQVSFSKSTDAFAFEEDSSSDGLSPDQTRSEDPQNSAGSPPDAKASDTPSTGSLGTNQDLASGSENDRNDSASQPSHQSDAGKQGLGPPSTPIAVHAAVKSKSLGDSKNRHKKPKDPKPKVKKLKYHQYIPPDQKAEKSPPPMDSAYARLLQQQQLFLQLQILSQQQQQQQHRFSYLGMHQAQLKEPNEQMVRNPNSSSTPLSNTPLSPVKNSFSGQTGVSSFKPGPLPPNLDDLKVSELRQQLRIRGLPVSGTKTALMDRLRPFQDCSGNPVPNFGDITTVTFPVTPNTLPNYQSSSSTSALSNGFYHFGSTSSSPPISPASSDLSVAGSLPDTFNDASPSFGLHPSPVHVCTEESLMSSLNGGSVPSELDGLDSEKDKMLVEKQKVINELTWKLQQEQRQVEELRMQLQKQKRNNCSEKKPLPFLAASIKQEEAVSSCPFASQVPVKRQSSSSECHPPACEAAQLQPLGNAHCVESSDQTNVLSSTFLSPQCSPQHSPLGAVKSPQHISLPPSPNNPHFLPSSSGAQGEGHRVSSPISSQVCTAQMAGLHSSDKVGPKFSIPSPTFSKSSSAISEVTQPPSYEDAVKQQMTRSQQMDELLDVLIESGEMPADAREDHSCLQKVPKIPRSSRSPTAVLTKPSASFEQASSGSQIPFDPYATDSDEHLEVLLNSQSPLGKMSDVTLLKIGSEEPHFDGIMDGFSGKAAEDLFNAHEILPGPLSPMQTQFSPSSVDSNGLQLSFTESPWETMEWLDLTPPNSTPGFSALTTSSPSIFNIDFLDVTDLNLNSSMDLHLQQW
B2: TSHZ3-HA wild-type (teashirt zinc finger homeobox 3) [human] / SOX9-Flag (SRY-box transcription factor 9) [not stated] (parent complex)
chain 1: B1 chain 1
chain 2: MNLLDPFMKMTDEQEKGLSGAPSPTMSEDSAGSPCPSGSGSDTENTRPQENTFPKGEPDLKKESEEDKFPVCIREAVSQVLKGYDWTLVPMPVRVNGSSKNKPHVKRPMNAFMVWAQAARRKLADQYPHLHNAELSKTLGKLWRLLNESEKRPFVEEAERLRVQHKKDHPDYKYQPRRRKSVKNGQAEAEEATEQTHISPNAIFKALQADSPHSSSGMSEVHSPGEHSGQSQGPPTPPTTPKTDVQPGKADLKREGRPLPEGGRQPPIDFRDVDIGELSSDVISNIETFDVNEFDQYLPPNGHPGVPATHGQVTYTGSYGISSTAATPASAGHVWMSKQQAPPPPPQQPPQAPPAPQAPPQPQAAPPQQPAAPPQQPQAHTLTTLSSEPGQSQRTHIKTEQLSPSHYSEQQQHSPQQIAYSPFNLPHYSPSYPPITRSQYDYTDHQNSSSYYSHAAGQGTGLYSTFTYMNPAQRPMYTPIADTSGVPSIPQTHSPQHWEQPVYTQLTRP

Variants of: B1
Assay: co-immunoprecipitation (anti-HA beads), Western blot densitometry; parent: 1; read off a plot

Variant	response
chain 1 S58G	~1.9 MYOCD-Flag / TSHZ3-HA in IP
chain 1 P63L	~1.6 MYOCD-Flag / TSHZ3-HA in IP
chain 1 A65T	~1.5 MYOCD-Flag / TSHZ3-HA in IP

Variants of: B2
Assay: as above

Variant	response
chain 1 S58G	~0.46 SOX9-Flag / TSHZ3-HA in IP
chain 1 A65T	~1.4 SOX9-Flag / TSHZ3-HA in IP
chain 1 P63L	~1.1 SOX9-Flag / TSHZ3-HA in IP
